In the supplement of paper PMC12636428:

Tested on: Saccharomyces cerevisiae
Assay: transcriptional activation domain activity (GFP:mCherry ratio, weighted mean of sorted bins, harmonized to initial dataset scale) (arbitrary fluorescence ratio units); higher = stronger transcriptional activation
Conditions: beta-estradiol 1 µM; induction time 4 h
Outline: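 For this assay, yeast diploids with a GFP reporter carried barcoded protein tiles at URA3, each fused to an estradiol-inducible synthetic transcription factor. Induction was a 1:5 dilution into SC with 1 uM beta-estradiol for 4 hours at 30 °C, followed by sorting into 8 bins by GFP:mCherry ratio and barcode sequencing. Tiles under 50 reads were dropped, and activation activity was calculated as the read-weighted mean of bin median fluorescence, averaged across barcodes and linearly mapped onto the initial dataset scale.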

| Sequence | transcriptional activation domain activity |
| --- | --- |
| MISTLAMSLLETPIEPRTHAEICLEFWGIRLCSPITDINLAAFWNYYFKTIAH | 45600 |
| LFPFLFFFFFFLFFSFFLSFFPSSCFLLFSPFFSLVFPFFSLVFFSSFLFFSF | 26800 |
| VVNLLQSLHFGGLLNHKKRHYFWIIFGAIFFWEWIPQFPFPLLTAFSVICLVD | 47400 |
| MCINMYFWKVFFMWTLIFFGLSYIPLSFPGMSYFCLLQHKVFLIILGNHFLRF | 56800 |
| FVGPQLCRDDAWLHTSIQFTRNVGITRNLLRMLPAVVRPIVARLLPSYWRIYS | 41700 |
| AAAATGSKRKADDASDEEQEEGDKEGDNNKGEKQGGEPAGKKQKQTAGVKRVV | 27500 |
| AQLLQRTWLIHWSLFVFFNHPRGRDYIVDLLFQPNYINSIQMACPWILRYLTA | 45100 |
| YVSVNEHGDETDSSFVRLVNLGSSIVIQHITCYLQSRVVFYLMNLHSMPRAIF | 60800 |
| SFCFILPFTALTLFIFFLSRISCWSAVWWLDDFWLLHICLDISFTFFLFYSFF | 62800 |
| PILIPGGLGVVLLHLPASFTKIECNESGFHQFIKRRCRLLLGVEPGMKVVVLT | 60900 |
| MDELGKIAFGSIPPPQAEPNLIGDNFGIFVDDMFTAYEDPMAHWSFLFEDLFP | 151000 |
| SDKLHRLRWRLGSLEDVLTTFSYLKFEQYLIPIVYLLLRRHTNIIFLAAHWVL | 64000 |
| LLTGSSALLLPVIWPRLSASLRFPVVLLLPLPYIFTYLCVYPPTPFSPHITPT | 59300 |
| LVSHTVFKIIAICRHYAPPDGYMLAYVLCSSFALASTLWCTLLIICRIVILVQ | 39100 |
| MSLGELAVLWVKRARHLGQSLLRVVLVSYAVDLPANCVALLRTGIRVLMLNMI | 37300 |
| KEEAPAEEQEKEEKKEKVPLSDARKGRARGPQRRAPAAAKAAAAAAAAPAPAV | 34400 |
| MSLLMRVLCFCALGRPDLEDHWKSLQSEKAFEIVRTRVSSILDNIVTTAGVLL | 60400 |
| MMGLRELHAASREFAMLFWREPRLDLALFLLLFLFFFVLFLFFCLFFFFCLVF | 15100 |
| FLRRVFQNHPEVMFKPGPFYMGDGIIGLGANWICICWTLFVCVLLSFPTILPV | 66700 |
| MRTHVLSMHSALLLLHCLRAVWLAPVSRPRQCLTSPAFCSSTRLAIILGGVRH | 77900 |
| KKREKKERSRRHRDDDGERRRRHRSRSRSRDRERRHRHRDRSRSRDRRRDDGR | 35200 |

| Sequence | transcriptional activation domain activity |
| --- | --- |
| GEVSEAEANGATTQAEDGATPAEGADKKKKKKKARKSKKAADAAAGGAEKPAE | 17900 |
| MAWAIQGRLFSFNCSCSHFIFWPLFFFFSLPWRAWSSIGNNSRFSRLFFFFFL | 60900 |
| MTVSWLRRLGTFLFEFFFFFSFFSFFFFLFSFFFFLFFLFSYFPFFSFFSFFS | 21600 |
| LHLCLQVTKAYLERFHKFDPADITVCCSSVMFHFACAMKVLYRLLLLDDPGWD | 59900 |
| CLRYSLLLVSLGLGAEGSPPFLILFPWTPILLARFYCIGWWVRFGFIFVRLWP | 63200 |
| TTWLAHSKKKNCDVCKHPYSFTKVYATDMPTRLPPVLLLRRIAQQSFFAMVFA | 44800 |
| AWPLHLTLGKIPKSIRYQDYHRACRVLAYFPIIHVKGGIIRPAWWWSHCKKLI | 36300 |
| YEASNHPEFDLNADVGLVIQVLEQTHSHTPIKLCSLIVKLQVVSGFLSYLESD | 32800 |
| DPNSPLDGDVDELRSREIAAKAVTGTLILLLKWLKLSHVLKFEYVTQLLLDLN | 57100 |
| APSSSAAADGLTSPKPTGTRAALRSILREEGAAGLLRGLSPRVAKVAPACGMM | 42700 |
| VGSWTFGSIMVFGFSYLALTVLPNLCLNCPYSTPVSEMSWHLSHRLLLFILLL | 31800 |
| FNEFYPSGWPPSYFIVILRMLFLVCGLFFLWSFFFVVFFFCGLLSLLFFILVV | 28500 |
| MEHFSLFLFRFFFLFFVFLFLRRRGGGFGTGFGFWFLVFGFWFLVFGFWFWLW | 64000 |
| MGFFFVFYLLLSHCCFSLWVRGFGFFLSHPVFLFYILGGFCLVCFFPFFFPIN | 48900 |
| KNNNREVEVEAREPHHKGRKNNKREVGEVEARDPHHKGRKNNKREVEVEAREP | 52900 |
| MITYIILLLFFLLYYSIILFTSFSFSFFITFILHTITTLPVFILSCCSTFFFF | 66600 |
| IFVSLLDYLATWISDDQIKCWPLNFVSRMFFYMLYFVFYRTILLFLTIEEIAV | 55200 |
| FLSGWPLVLGKFGFDPKFNSCWYLNQDDRLTLIWLWCTFYFWVVASVIYSLLV | 62300 |
| PLLFLLNRLPIHPPLLIVPVLLWFYCRLTIYSILFWLNNLMVQKLSLLIMSIF | 34500 |
| GAVNLSSNERVVFSCRGEVLESKFGRSSKLSPRTFVVTTSKFYIVVQMLVSGQ | 37800 |
| KIHLVNLAQVSVFFIHRVLYGIIPLFEIKTCAYFPLLVSLWHMTYILFYIVMF | 71200 |

| Sequence | transcriptional activation domain activity |
| --- | --- |
| EVDAEAAEKPVKRLTRKARGVTEENQTSDAQSSRPAPVRRGRKPASVASTTAP | 54700 |
| RTKASGSSGEAAAASGGASSSKAEDARAEGGEEAAKPRRSSRLSAKSAGESAG | 15000 |
| EIGPDGEVKKKYDPKDPMRPRRKKARRACFACQRAHLTCGDERPCQRCIKRGL | 53300 |
| MCILSLFTAWAGLTLFTCIFSFFLLCIVNALLGQNGVGGLLTARRFNTILRVC | 54400 |
| ARNGSSSGDILFSNGAHDMINNISTWTNNSVLDALNSKSILQTIFPQSQEPSS | 58200 |
| STFGKYVHCRLLEGNTGMKIPQAAVIALIFRFLEKLVNTRLAVISRRWAMVTL | 67000 |
| AKAAEAVVAPEADAEKAEEAVVEKPKSTKGRKRKADEEDAEEVAAEANGAEAA | 28200 |
| QYYPGQLLSVKLDLFNTMLARVLDLSHMEILHFIVGPRVNIVGRGYPLRMGVV | 34100 |
| PNVFGLMLFELGLGFWIKTDYYYMLICLSVSSLVFRAEISLLSGLLVLQDIFL | 66400 |
| GHSTSTFNTYDEVVSRPFISLDMLHLNRGANANTHPSHNAKLESECDSSSHSD | 38700 |
| AINVSFLHWIYIFHATGKHKYASQLARYLKNLHEVHPPELSQWLIEVFRKCHI | 61400 |
| AKSAKGGSRRKSAATSTRTSAPRRSTGNDTGRSFKPAKDARGSSSGDAEDKIK | 37200 |
| PIEYNTWLIFRQFVDIILLNDFVAYCMFAFSHFRVPNNLSITMHLLRWICGLA | 42000 |
| PVNYLRLTNIGVCDMDDGYDLACHLMLNEPDADSCALLRVLIHRLKECTNLNI | 47100 |
| GSTSSSNEEKKEQSITSESKAAGGLFGSIKSNEPPTSAFGSLSTTEAKPAASP | 32800 |
| MIFFLLFFFSFHQVYFSLFSFRRIFLLSFLLLLLPFLLFACVLFSLLTFCPFL | 41900 |
| RLVVLYGASRIVVAIKRAHGGFDYTRRLSDEEPMVRIMTVVVSYSRLILISVY | 53300 |
| EYLDKLLAEFEEFDYSINRVLPDVIDFSALIGQDSSANNQIFSSEFSSDPTVN | 139000 |
| LLFVTDWALVGLGRFSESCIFFFLFSLWYNFCLHRFFISPTLYSSLTWHCVTS | 42800 |
| DQIYIYQTPRWLCYECLVAMFTMFTIRLVYFWSLHVLNHLLTYKTFLFFFLSC | 47400 |
| GAKGKGAEKGKSKQAEQGDGEDGGSEAEGGKRKRAARSKAKTKGKAGGAADGG | 23300 |

| Sequence | transcriptional activation domain activity |
| --- | --- |
| MSLICIYQTIGTFAQICSWYFEMVHAGLSGSDIAQLARSNVNRIWWYKLLFTT | 44500 |
| DDAAADLQEAQAGASKKNRKRNRKKNAQDGPAEEATPSKGARQGKKGKGWRET | 12000 |
| LVVFVFLILVVFVFLILVVFVFLILLILAFFVFLILLALLIFLILLVFLVFLV | 30600 |
| DLEELRHLCHALKATFTHVLSIPVCSYFYFPQTSFAMILHSIMIICRWVKLST | 35100 |
| MFGICTYSIPFLYFPPIPFVSYVSTLYFFVSHSISFHYLYIYCSIHLPFFLFI | 69000 |
| SALRYYFKVELYNLPARQWFERCFFTPLEVFNTAWLAYILLAQTTGSMVNCAC | 38200 |
| VRVVQLSLSLFIARFVTALVLPFIAIVTKWLVIGRYRPGIFPLWGTYYLRWWF | 45000 |
| EEQEQDAASKAQEGSKDAPAPKSTENKNEKDAAPNDSSPSKFTKKHKAKKPSK | 24700 |
| GSAAKAGAGTGAGKAAAGGKTSAAATARGGGGAGAGGGKGAGGASAKAGTGGG | 31600 |
| MNKLFFKLRICVLIKIMLLQFVIIATIYNCNYFIIIVMYICLLLLLPFKLVYD | 52100 |
| GKAKASKTAGAGLAKASKAPKVPKAGGKGAKASKGAKAPKASKAAGAAGAKAS | 28400 |
| KFKTFPLFLPRINFHSIPSFNILLSSFPNSIFLNVLFRISLYYIWAYFLWCAL | 52000 |
| ALSTRPFVLSDMIFFFGVGTLITLPIPFLVIYDYPYKKPRTYQVYLLICVWAW | 61500 |
| GNESDDESTEEEKEVKRKKKKKVAKKLPKKKAKKAAVKAKSKKSKKADSSDES | 31000 |
| LASLTPLISRRTPATTHARPHSTTQIPHRHHSAEMAEEQKPVVVADAPAAPAV | 27800 |
| EGEREREREGEEMEEVMREGTNREEKKEEEEEGKRKDKRRKETGNLLLLLVVV | 40400 |
| DGGGRDSEKRGKGKLITRKSHRKSRLGCGNCKQRRIKCDEKRPHCTNCQKRDI | 37600 |
| LTDIQRASKLFRVMQDFRYLRLLVHRITLWIDDQHCASLGTNIYYTFLMRGRF | 53200 |
| RCFSFLFLGCHYDTDWGFGFCCLFVINCRFNFCIFFLSLFSSFFVLVSFFLLY | 58800 |
| GEAQARANADAQADAGEVPEKGKKKRRHKEGGGDGEGKKKKRKEKQTEPEEGA | 24700 |
